In US20190225705A1 (published 2019):
Where a chain is given by its changes, count along the chain named.

B1: humanized and germlined anti-FXI antibody TPP-3583 (antibody, V domains shown)
VH: EVTLRESGPALVKPTQTLTLTCTFSGFSLSTSGMGVGWIRQPPGKALEWLAHIDWDDDKYYSPSLKSRLTISKDTSKNQVVLTMTNMDPVDTATYYCARIRSSVYAHYYGMDYWGQGTTVTVSS
VL: DIVMTQSPDSLAVSLGERATISCKASQSVLYSGDNYLNWYQQKPGQPPKLLIYAASTLESGIPDRFSGSGSGTDFTLTISSLQAEDVAVYYCQQYNGDPWTFGGGTKVEIKR
B2: humanized and germlined anti-FXI antibody TPP-3577 (antibody, V domains shown)
VH: B1 VH with G35C, P63T, Y113V
VL: B1 VL with A25S
B3: humanized and germlined anti-FXI antibody TPP-3238 (antibody, V domains shown)
VH: B1 VH with G37S, P63T, A106Y, H107Y, Y113V
VL: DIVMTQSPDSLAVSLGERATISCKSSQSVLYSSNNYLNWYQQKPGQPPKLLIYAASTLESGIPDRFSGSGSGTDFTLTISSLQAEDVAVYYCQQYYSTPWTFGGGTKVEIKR
B4: TPP-3238 (antibody, V domains shown)
VH: B1 VH with G37S, P63T, A106Y, H107Y, Y113V
VL: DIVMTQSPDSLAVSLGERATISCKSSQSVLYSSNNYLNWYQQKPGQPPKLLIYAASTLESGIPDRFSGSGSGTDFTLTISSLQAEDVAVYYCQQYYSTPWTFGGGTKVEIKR
B5: 1A6 (antibody, V domains shown)
VH: QVTLKESGPGILKPSQTLSLTCSFSGFSLSTSGMGVGWIRQPSGKGLEWLAHIWWDDDKYYNPSLKSQLTISKDTSRNQVFLKITSVDAADTATYYCARKRSSVVAHYYAMDYWGQGTSVTVSS
VL: DIVLTQSPASLAVSLGQRATISCKASQSVDYDGDSYLNWYQQKPGQPPKLLIYAASNLESGIPARFSGSGSGTDFTLNIHPVEEEDAATYYCQQSNGDPWTFGGGTKLEIK
B6: humanized and germlined anti-FXI antibody TPP-3290 (antibody, V domains shown)
VH: B1 VH with G37S, P63T
VL: B1 VL with D98T
B7: murine anti-FXI antibody 1A6 (antibody, V domains shown)
VH: B5 VH
VL: B5 VL
B8: TPP-3290 (antibody, V domains shown)
VH: B1 VH with G37S, P63T
VL: B1 VL with D98T
B9: TPP-3577 (antibody, V domains shown)
VH: B1 VH with G35C, P63T, Y113V
VL: B1 VL with A25S
B10: TPP-3583 (antibody, V domains shown)
VH: B1 VH
VL: B1 VL

Tests used:
[1] = target: T1, human coagulation factor XI (UniProt P03951 19-625); experiment: ELISA
[2] = target: T1, human coagulation factor XI; experiment: ELISA; remark: listed apart in the source
[3] = target: T1, human coagulation factor XI; experiment: FXIIa induced FXI conversion assay
[4] = target: T1, human coagulation factor XI; experiment: Conversion Assay
[5] = target: T1, human coagulation factor XI; experiment: ELISA; remark: listed apart in the source
[6] = target: T1, human coagulation factor XI; experiment: ELISA; remark: listed apart in the source
[7] = target: baboon FXI (Papio anubis (baboon)); experiment: ELISA
[8] = target: T1, human coagulation factor XI; experiment: ELISA; remark: listed apart in the source
[9] = target: T1, human coagulation factor XI; experiment: ELISA; remark: listed apart in the source

Binder	EC50 [2] [nM]	EC50 [4] [nM]	EC50 [7] [nM]	further results
B1	0.2	0.6	–	EC50 [1]: 0.219 nM; IC50 [3]: 0.598 nM
B2	0.19	0.4	–	EC50 [5]: 0.119 nM
B3	0.16	0.6	–	EC50 [6]: 0.165 nM
B4	–	–	0.28	–
B5	–	–	0.16	–
B6	0.17	0.4	–	EC50 [8]: 0.168 nM
B7	0.15	0.5	–	EC50 [9]: 0.154 nM
B8	–	–	0.14	–
B9	–	–	0.16	–
B10	–	–	0.13	–
